How the values were obtained:
[1] = Adsorption of proteins on polystyrene beads at 5° C., protein concentration in filtrate, Example 3; type: physicochemical; conditions: for protein concentration in solution, A: A = 3 ml of protein solution + 450 μl of buffer (no polystyrene), phosphate buffer pH 7; for protein concentration in solution (filtrate), B: B = after contact with treated polystyrene surfaces (block polymer PPG MW 2,250, 5% PEG each side; 20 ppm present); for protein concentration in solution (filtrate), B / protein concentration in solution (filtrate), C: shaken at 5° C., 0.2 μm filtered; for protein concentration in solution (filtrate), C: C = after contact with untreated polystyrene surfaces
Description: 10 ml of an aqueous suspension of polystyrene beads (Dow-Latex®) having an average diameter of 0.481 μm were divided in two aliquots, one of which remained untreated while the other was shaken for 2 days at room temperature with 50 mg of a block polymer consisting of a linear polypropylene glycol chain with an average molecular weight of 2,250 (Dalton) on each side of which 5% of polyethylene glycol had been added by polymerization. The excess block polymer was then removed by dialysis against an aqueous solution containing 20 ppm of the same polymeric, surface-active substance.
Two times 3 ml portions of a solution of the proteins indicated in the following table in the given concentrations in phosphate buffer, pH 7, were prepared and each solution was shaken at 5° C. with 500 μl each of the untreated polystyrene suspension or the polystyrene suspension treated as described above, the latter still containing 20 ppm of the block polymer. Each sample was then filtered to clarity through a 0.2 μm filter.
A=3 ml of the respective protein solution+450 μl of buffer
B=after contact with treated polystyrene surfaces
C=after contact with untreated polystyrene surfaces.

[2] = Shaking test of peptide hormone solutions at 37° C., Example 5; conditions: for appearance after a few days of shaking: 0.1% solution in 0.05M Tris/HCl buffer pH 7.5, shaken at 37° C., without stabilizer; for appearance of stabilized samples: 0.1% solution in 0.05M Tris/HCl pH 7.5, shaken at 37° C., with 10 ppm block polymer (PPG MW 2,000, 5% PEG each side)
[3] = Shaking test of albumin solutions at 37° C. (turbidity from denatured protein), Example 1b; type: physicochemical; conditions: 0.1% solution in 0.01M phosphate buffer pH 7, shaken at 37° C.
[4] = Adsorption of β-galactosidase on silicone oil emulsion, enzyme activity in aqueous phase, Example 2; type: physicochemical
Description: Ten samples of 10 ml each of a 0.01% solution of the enzyme β-galactosidase from E. coli in 0.01M phosphate buffer, pH 7, with 3×10^6 μU/ml were admixed stepwise with 10 to 100 mg of silicone oil AK 350 and the suspensions were shaken for 48 hours at 5° C. Emulsions were formed which could be separated into two phases by ultracentrifugation (40,000 g, 30 minutes, 4° C.). The enzyme activity in the aqueous phase was determined.

[5] = Shaking test of protein solutions at 37° C. with analytical ultracentrifuge check, Example 6; type: physicochemical
Description: 0.1% solutions of egg albumin, human immunoglobulin-G and myoglobin of the whale, respectively, in 0.01M phosphate buffer, pH 7, and analogous solutions containing 0.1%, calculated on the weight of the solution, of the following compound [drawing 4] in which n and m are chosen to obtain a compound having an average total molecular weight of 12,500 Daltons with an ethylene oxide proportion of 40%, were freed from aggregates by ultracentifugation (for example 100,000 g/90 minutes). Ampules containing 10 ml each of the solutions were shaken at 37° C.

| Molecule | protein concentration in solution, A [1] [mg/mL] | protein concentration in solution (filtrate), B [1] [mg/mL] | protein concentration in solution (filtrate), C [1] [mg/mL] | appearance after a few days of shaking [2] | also measured |
| --- | --- | --- | --- | --- | --- |
| Insulin | 1.0 | 1.0 | 0.2 | – | – |
| gastrin | – | – | – | had become turbid | – |
| bovine serum albumin: bovine serum albumin, 0.1% solution | – | – | – | – | appearance of sample containing stabilizer ([3]; with 10 ppm block polymer (polypropylene glycol MW 1,750, 5% polyethylene glycol on each side)): still limpid after several month; time after which sample became strongly turbid (denatured protein) ([3]; without stabilizer): 7 days |
| adrenocorticotropic hormone: peptide hormone (SYSMEHFRWGKPVGKKRRPVKVYPNGAEDESAEAFPLEF; Corticotropin; UniProt P01189 138-176, looked up) | – | – | – | had become turbid | appearance of stabilized samples [2]: remained clear even after several months |
| cholecystokinin | – | – | – | had become turbid | appearance of stabilized samples [2]: remained clear even after several months |
| gastrin inhibiting polypeptide: peptide hormone | – | – | – | had become turbid | – |
| Lysozyme | 1.0 | 0.95 | 0.25 | – | – |
| secretin: peptide hormone | 1.0 | 1.0 | 0.3 | had become turbid | – |
| calcitonin | – | – | – | had become turbid | appearance of stabilized samples [2]: remained clear even after several months |
| β-galactosidase: enzyme β-galactosidase from E. coli | – | – | – | – | enzyme adsorbed by silicone oil emulsion ([4]; 0.01% solution, 0.01M phosphate buffer pH 7, 10 to 100 mg silicone oil AK 350, shaken 48 hours at 5° C., without stabilizer): up to 70%; enzyme activity adsorbed on silicone oil ([4]; same test in the presence of 100 ppm of compound drawing 2): no enzyme activity had been adsorbed |
| Egg-albumin: egg albumin (protein, UniProt P01012 2-386, looked up) Ovalbumin: GSIGAASMEFCFDVFKELKVHHANENIFYCPIAIMSALAMVYLGAKDSTRTQINKVVRFDKLPGFGDSIEAQCGTSVNVHSSLRDILNQITKPNDVYSFSLASRLYAEERYPILPEYLQCVKELYRGGLEPINFQTAADQARELINSWVESQTNGIIRNVLQPSSVDSQTAMVLVNAIVFKGLWEKAFKDEDTQAMPFRVTEQESKPVQMMYQIGLFRVASMASEKMKILELPFASGTMSMLVLLPDEVSGLEQLESIINFEKLTEWTSSNVMEERKIKVYLPRMKMEEKYNLTSVLMAMGITDVFSSSANLSGISSAESLKISQAVHAAHAEINEAGREVVGSAEAGVDAASVSEEFRADHPFLFCIKHIATNAVLFFGRCVSP | 0.5 | 0.50 | 0.22 | – | appearance of samples without stabilizer ([5]; 0.1% solution in 0.01M phosphate buffer pH 7, freed from aggregates, shaken at 37° C., without stabilizer): became strongly turbid after a few hours; appearance of samples containing surface-active substance ([5]; 0.1% solution in 0.01M phosphate buffer pH 7, shaken at 37° C., with 0.1% of compound drawing 4 (MW 12,500, 40% ethylene oxide)): remained limpid for several months; new aggregates in analytical ultracentrifuge ([5]; samples with 0.1% of compound drawing 4 after shaking at 37° C.): no new aggregate could be found |

Reference: patent US4783441A, “Aqueous protein solutions stable to denaturation” (Hoechst Aktiengesellschaft, priority 1979, dated 1988)
